# Results taken from the supplement of paper PMC7877785.
# ± gives the uncertainty stated by the source.
# Assay: self-splicing fitness, log relative to wild type (ln ratio); higher = more splicing; Tetrahymena group I intron in knt gene, E. coli kanamycin selection, DiMSum; sequences stand for … in CUCUCU…GGAGGGAAAAGUUAUCAGGCAUGCACCUGGUAGCUAGUCUUUAAACCAAUAGAUUGCAUCGGUUUAAAAGGCAAGACCGUCAAAUUGCGGGAAAGGGGUCAACAGCCGUUCAGUACCAAGUCUCAGGGGAAACUUUGAGAUGGCCUUGCAAAGGGUAUGGUAAUAAGCUGACGGACAUGGUCCUAACCACGCAGCCAAGUCCUAAGUCAACAGAUCUUCUGUUGAUAUGGAUGCAGUUCACAGACUAAAUGUCGGUCGGGGAAGAUGUAUUCUUCUCAUAAGAUAUAGUCGGACCUCUCCUUAAUGGGAGCUAGCGGAUGAAGUGAUGCAACACUGGAGCCGCUGGGAACUAAUUUGUAUGCGAAAGUAUAUUGAUUAGUUUUGGAGUACUCGUGGUCG
# Summary of the method: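 Colonies from six replicate transformations of E. coli BL21(DE3) were pooled and amplicon-sequenced on an Illumina HiSeq 2500. The library placed an intron with all eight P1ex-region nucleotides randomised inside the knt kanamycin-resistance gene on pET-22b(+), and cells grew overnight at 37°C or 30°C on LB agar with or without 25 μg/mL kanamycin (plus 100 μg/mL carbenicillin, 50 μM IPTG, 0.2% rhamnose). Fitness is the DiMSum error-weighted combination of wild-type-normalised replicate fold changes, kanamycin versus none.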
Sequence,self-splicing fitness (ln) (30 °C),self-splicing fitness (ln) (37 °C)
AACAAGCAAUAUUACGGGCU,-1.82 ± 0.073,-1.15 ± 0.099
AACAAGCAAUAUUACGGUCA,-0.52 ± 0.043,0.199 ± 0.062
AACAAGCAAUAUUACGGUGU,-2.51 ± 0.056,-1.45 ± 0.068
AACAAGCAAUAUUACGGUUG,-2.83 ± 0.1,-1.64 ± 0.084
AACAAGCAAUAUUACGUAUG,-3.33 ± 0.12,-1.85 ± 0.1
AACAAGCAAUAUUACGUCGG,-2.99 ± 0.14,-1.99 ± 0.15
AACAAGCAAUAUUACGUGUA,-1.55 ± 0.046,-1.01 ± 0.054
AACAAGCAAUAUUACGUUGG,-3.76 ± 0.13,-3.31 ± 0.18
AACAAGCAAUAUUACGUUUG,-2.87 ± 0.096,-2.46 ± 0.12
AACCAGCAAUAUUACGAAUU,-0.517 ± 0.064,-0.314 ± 0.081
AACCAGCAAUAUUACGACAA,-1.14 ± 0.12,-0.155 ± 0.12
AACCAGCAAUAUUACGACGG,-2.1 ± 0.089,-0.974 ± 0.11
AACCAGCAAUAUUACGACUA,0.0905 ± 0.084,-0.0751 ± 0.079
AACCAGCAAUAUUACGAGAU,-1.96 ± 0.078,-0.239 ± 0.083
AACCAGCAAUAUUACGAGGG,-3.27 ± 0.11,-2.1 ± 0.11
AACCAGCAAUAUUACGAGUA,-1.07 ± 0.061,-0.523 ± 0.075
AACCAGCAAUAUUACGAUAG,-2.87 ± 0.16,-2.11 ± 0.15
AACCAGCAAUAUUACGCAUC,-1.98 ± 0.079,-0.531 ± 0.085
AACCAGCAAUAUUACGCGGC,-3.79 ± 0.2,-3.14 ± 0.23
AACCAGCAAUAUUACGGAAU,-2.06 ± 0.08,-0.602 ± 0.091
AACCAGCAAUAUUACGGAGA,-1.62 ± 0.086,-1.5 ± 0.084
AACCAGCAAUAUUACGGGCU,-2.19 ± 0.093,-1.71 ± 0.1
AACCAGCAAUAUUACGGUUG,-2.21 ± 0.05,-0.839 ± 0.06
AACCAGCAAUAUUACGUAAU,-1.45 ± 0.055,-0.238 ± 0.069
AACCAGCAAUAUUACGUGAU,-1.66 ± 0.04,-1.11 ± 0.05
AACCAGCAAUAUUACGUGGG,-3.94 ± 0.12,-2.57 ± 0.094

Sequence,self-splicing fitness (ln) (30 °C),self-splicing fitness (ln) (37 °C)
AACCAGCAAUAUUACGUGUC,-3.29 ± 0.094,-1.42 ± 0.075
AACCAGCAAUAUUACGUGUG,-1.05 ± 0.033,-0.463 ± 0.048
AACCAGCAAUAUUACGUUCA,-0.752 ± 0.06,-0.495 ± 0.065
AACCAGCAAUAUUACGUUCU,-1.15 ± 0.043,-0.678 ± 0.053
AACCAGCAAUAUUACGUUGU,-2.68 ± 0.077,-2.38 ± 0.1
AACGAGCAAUAUUACGAACA,-3.15 ± 0.28,-1.9 ± 0.16
AACGAGCAAUAUUACGAAGA,-3.13 ± 0.33,-1.82 ± 0.44
AACGAGCAAUAUUACGACUG,-2.12 ± 0.16,-0.348 ± 0.15
AACGAGCAAUAUUACGAGCU,-4.74 ± 0.36,-3.22 ± 0.27
AACGAGCAAUAUUACGAUAA,-3.76 ± 0.2,-2.94 ± 0.21
AACGAGCAAUAUUACGAUCA,-2.1 ± 0.21,-1.41 ± 0.21
AACGAGCAAUAUUACGAUGC,-2.93 ± 0.2,-1.52 ± 0.26
AACGAGCAAUAUUACGAUUU,-0.71 ± 0.067,-0.294 ± 0.082
AACGAGCAAUAUUACGCAAA,,-1.9 ± 0.35
AACGAGCAAUAUUACGCGCU,-3.43 ± 0.2,-0.902 ± 0.14
AACGAGCAAUAUUACGCGGA,-2.97 ± 0.2,-2.01 ± 0.2
AACGAGCAAUAUUACGCGGC,-2.71 ± 0.33,-2.15 ± 0.33
AACGAGCAAUAUUACGCGGU,-3.29 ± 0.26,-1.62 ± 0.15
AACGAGCAAUAUUACGCUCU,-5.11 ± 0.41,-1.81 ± 0.14
AACGAGCAAUAUUACGCUGA,-1.64 ± 0.27,-2.29 ± 0.39
AACGAGCAAUAUUACGCUUG,-2.67 ± 0.17,-2.99 ± 0.29
AACGAGCAAUAUUACGGCGG,-2.67 ± 0.14,-1.13 ± 0.13
AACGAGCAAUAUUACGGCUU,-0.938 ± 0.076,-0.225 ± 0.1
AACGAGCAAUAUUACGGGAC,-3.37 ± 0.22,-3.61 ± 0.46
AACGAGCAAUAUUACGGGGU,-3.26 ± 0.35,
AACGAGCAAUAUUACGGUAA,-4.2 ± 0.42,-2.47 ± 0.28

Sequence,self-splicing fitness (ln) (30 °C),self-splicing fitness (ln) (37 °C)
AACGAGCAAUAUUACGGUAG,-3.73 ± 0.15,-3.17 ± 0.18
AACGAGCAAUAUUACGGUGU,-3.36 ± 0.17,-1.81 ± 0.18
AACGAGCAAUAUUACGUAAG,-4.14 ± 0.3,-0.595 ± 0.14
AACGAGCAAUAUUACGUAGA,-2.99 ± 0.12,-2.43 ± 0.17
AACGAGCAAUAUUACGUCUC,-3.67 ± 0.29,-3.03 ± 0.27
AACGAGCAAUAUUACGUGUA,-2.55 ± 0.11,-3.2 ± 0.14
AACGAGCAAUAUUACGUUAG,-3.71 ± 0.33,-3.11 ± 0.3
AACGAGCAAUAUUACGUUUU,-3.9 ± 0.14,-2.79 ± 0.14
AACUAGCAAUAUUACGAAUU,-1.49 ± 0.076,-0.396 ± 0.097
AACUAGCAAUAUUACGACCA,-0.23 ± 0.079,0.118 ± 0.1
AACUAGCAAUAUUACGACCG,-0.914 ± 0.12,0.134 ± 0.15
AACUAGCAAUAUUACGACGG,-2.21 ± 0.14,-0.86 ± 0.21
AACUAGCAAUAUUACGACUU,-0.0929 ± 0.069,0.236 ± 0.09
AACUAGCAAUAUUACGAUAG,-3.19 ± 0.19,-1.77 ± 0.13
AACUAGCAAUAUUACGCACC,0.625 ± 0.17,-1.48 ± 0.25
AACUAGCAAUAUUACGCAUG,-1.25 ± 0.083,-0.11 ± 0.086
AACUAGCAAUAUUACGCCCG,-1.11 ± 0.18,-0.346 ± 0.23
AACUAGCAAUAUUACGCCGU,-1.62 ± 0.11,-0.221 ± 0.14
AACUAGCAAUAUUACGCCUA,-0.593 ± 0.11,-0.206 ± 0.11
AACUAGCAAUAUUACGCGCC,-1.34 ± 0.12,-0.314 ± 0.12
AACUAGCAAUAUUACGCGGC,-3.01 ± 0.19,-3.27 ± 0.22
AACUAGCAAUAUUACGCUGG,-3.28 ± 0.4,-2.34 ± 0.22
AACUAGCAAUAUUACGCUUC,-3.74 ± 0.33,-1.68 ± 0.2
AACUAGCAAUAUUACGGAUC,-1.78 ± 0.17,-1.37 ± 0.12
